Results: patent publication US20040180823A1

Target: EphA4 receptor extracellular domain fused to a human Fc region (human)
Experiment: inhibition of ephrin-A5 AP binding to EphA4

Chain of EphA4 receptor extracellular domain fused to a human Fc region (human) (Q03137 20-547): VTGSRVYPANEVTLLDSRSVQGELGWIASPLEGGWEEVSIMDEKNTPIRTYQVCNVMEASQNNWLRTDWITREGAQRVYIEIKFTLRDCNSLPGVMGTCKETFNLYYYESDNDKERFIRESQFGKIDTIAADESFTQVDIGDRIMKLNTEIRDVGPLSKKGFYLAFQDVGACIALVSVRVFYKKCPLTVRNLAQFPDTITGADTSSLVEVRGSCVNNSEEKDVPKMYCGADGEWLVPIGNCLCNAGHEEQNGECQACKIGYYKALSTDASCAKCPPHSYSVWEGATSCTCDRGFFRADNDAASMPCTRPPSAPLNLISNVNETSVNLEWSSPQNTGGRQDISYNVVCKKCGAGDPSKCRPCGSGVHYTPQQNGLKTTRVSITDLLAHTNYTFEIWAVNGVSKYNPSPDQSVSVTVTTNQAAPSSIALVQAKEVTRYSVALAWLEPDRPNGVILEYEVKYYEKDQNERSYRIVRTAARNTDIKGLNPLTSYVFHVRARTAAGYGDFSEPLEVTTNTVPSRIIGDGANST

| concentration required for similar levels of inhibition of ephrin-A5 AP binding | concentration that almost completely inhibited ephrin-A5 AP binding | Substance |
| --- | --- | --- |
| 10 µM | – | APY peptide (synthetic, biotinylated) |
| – | 1 µM | KYL peptide (synthetic, biotinylated) |
| 100 µM | – | VTM peptide (synthetic, biotinylated) |
